The stoichiometry N is the number of molecules, sites or subunits per partner or assembly.

Results on three molecules are retold here after paper PMC6203763.

In test [1] the target is recombinant human wild-type SHMT2 (isoform 3) (human). The test is described as follows: SEC; recombinant proteins purified by nickel affinity chromatography, separated by gel filtration, fractions analysed by western blot. A general note: Size exclusion chromatography separates by hydrodynamic size, large species first.
Test [2] has as its target T1, Flag-tagged wild-type SHMT2 expressed in SHMT2-knockout HCT116 cells (human), P34897.
T1 chain: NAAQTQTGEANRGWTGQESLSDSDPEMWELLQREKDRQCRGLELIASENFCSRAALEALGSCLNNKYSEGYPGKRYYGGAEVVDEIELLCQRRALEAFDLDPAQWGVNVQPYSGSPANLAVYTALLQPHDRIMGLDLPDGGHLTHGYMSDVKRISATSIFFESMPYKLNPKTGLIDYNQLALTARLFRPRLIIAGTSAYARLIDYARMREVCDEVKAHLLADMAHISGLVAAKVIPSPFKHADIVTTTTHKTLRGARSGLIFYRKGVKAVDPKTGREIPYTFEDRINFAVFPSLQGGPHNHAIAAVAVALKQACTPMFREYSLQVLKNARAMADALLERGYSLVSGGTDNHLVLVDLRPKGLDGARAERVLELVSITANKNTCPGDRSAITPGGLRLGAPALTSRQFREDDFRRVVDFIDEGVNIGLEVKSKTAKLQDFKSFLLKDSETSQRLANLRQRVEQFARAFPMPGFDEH
Briefly: cross-linking; cell lysates treated with or without 0.025% glutaraldehyde, western blot with anti-SHMT2; SHMT2-knockout HCT116 cells expressing Flag-tagged WT or K95Q, and SIRT3-knockout or control HCT116 cells. Conditions: remark: other sources report otherwise. (In general: Immunoblotting shows a protein as a band on a membrane.)

In test [3] the target is T2, serine hydroxymethyltransferase 2 (SHMT2), endogenous in HCT116 cells (human (endogenous in HCT116)), P34897.
T2 chain: T1 chain
The description is as above. The following applies: remark: other sources report otherwise.

“recombinant human wild-type SHMT2 (isoform 3) (enzyme)”: the stoichiometry N in test [1] was 4.

B1: Flag-tagged wild-type SHMT2 expressed in SHMT2-knockout HCT116 cells, P34897 30-504 (natural protein)
chain: T1 chain
The molecule B1 showed a stoichiometry N in test [2] of 4.

B2: serine hydroxymethyltransferase 2 (SHMT2), endogenous in HCT116 cells, P34897 30-504 (natural protein)
chain: T1 chain
Take B2: the stoichiometry N in test [3] was 4.
